Test results from patent US20060233822A1 (YANG SHENG TANG, published 2006).
Residue numbers refer to the chain shown, from its start.

What was measured:
[1] = molecular target: T1, polypeptide 239 (hepatitis E virus, UniProt P29326 368-603); assay: Western blot
T1 sequence: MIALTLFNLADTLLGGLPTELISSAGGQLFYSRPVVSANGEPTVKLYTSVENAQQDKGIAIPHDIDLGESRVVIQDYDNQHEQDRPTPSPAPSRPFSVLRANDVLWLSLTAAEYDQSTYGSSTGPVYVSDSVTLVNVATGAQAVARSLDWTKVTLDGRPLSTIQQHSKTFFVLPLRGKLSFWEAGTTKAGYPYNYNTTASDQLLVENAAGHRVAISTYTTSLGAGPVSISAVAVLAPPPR

[2] = molecular target: T2, NE2 mutant 601LD (hepatitis E virus, UniProt P29326 394-600); assay: Western blot of NE2 mutant proteins with monoclonal antibody 16D7
T2 construct: position counted on HEV ORF2
T2 chain: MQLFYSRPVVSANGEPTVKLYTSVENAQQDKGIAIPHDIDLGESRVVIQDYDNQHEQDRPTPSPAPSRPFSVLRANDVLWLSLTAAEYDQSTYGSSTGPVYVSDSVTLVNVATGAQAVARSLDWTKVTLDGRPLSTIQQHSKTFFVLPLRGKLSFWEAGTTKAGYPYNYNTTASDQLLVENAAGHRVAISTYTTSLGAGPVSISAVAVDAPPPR

[3] = molecular target: T3, NE2 mutant 601LH (hepatitis E virus, UniProt P29326 394-600); assay: as above
T3 construct: position counted on HEV ORF2
T3 chain: T2 chain with D209H

[4] = molecular target: T4, NE2 mutant 601LK (hepatitis E virus, UniProt P29326 394-600); assay: as above
T4 construct: position counted on HEV ORF2
T4 chain: T2 chain with D209K

[5] = molecular target: T5, NE2 mutant 600VE (hepatitis E virus, UniProt P29326 394-599); assay: as above
T5 construct: position counted on HEV ORF2
T5 chain: T2 chain with V208E, D209L

[6] = molecular target: T6, NE2 mutant 602AE (hepatitis E virus, UniProt P29326 394-601); assay: as above
T6 construct: position counted on HEV ORF2
T6 chain: T2 chain with D209L, A210E

Measured: binding result

B1: monoclonal antibody 16D7 (antibody, V domains shown)
VH: EVQLQQSGPELVKPGASVKMSCKASGYKFTSYVMHWVKQKPGQGLEWIGYINPSNDNIKYNEKFKGKAILTLDKSSSTAYMAFSSLTSEDSAVYYCATLTGVDYWGQGTTLTVSS
VL: DVVMTQTPLSLSVTIGQPASISCKSSQSLLYRNGKIYLNWLQQRPGQAPKHLMSQVSKLDPGIPDRFSGSGSETDFTLKISRVEAEDLGVYYCLQGTHYPYTFGGGTKLEIKR
notes: also called MAb 16D7; HRP-16D7
binds: all assays above
